# Settings: Saccharomyces cerevisiae (strain ATCC 204508 / S288c); pH 7; 25 °C; GdnHCl; Fluorescence; Potassium phosphate 0.1 M; reversible: yes; structure 1YCC
# Cytochrome c isoform 1 F88S|C108A, P00044 F88S C108A, sequence (P00044 whole entry F88S/C108A, canonical isoform): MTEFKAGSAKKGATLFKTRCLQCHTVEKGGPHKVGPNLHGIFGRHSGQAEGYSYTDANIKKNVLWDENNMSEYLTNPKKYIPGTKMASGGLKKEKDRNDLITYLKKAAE
# Cytochrome c isoform 1 N58I|F88S|C108A, P00044 N58I F88S C108A, sequence (P00044 whole entry N58I/F88S/C108A, canonical isoform): as the sequence (P00044 whole entry F88S/C108A, canonical isoform) above, with N58I counted along it
# Cytochrome c isoform 1 R44A|C108A, P00044 R44A C108A, sequence (P00044 whole entry R44A/C108A, canonical isoform): as the sequence (P00044 whole entry F88S/C108A, canonical isoform) above, with R44A, S88F counted along it
# Cytochrome c isoform 1 R44A|N58I|C108A, P00044 R44A N58I C108A, sequence (P00044 whole entry R44A/N58I/C108A, canonical isoform): as the sequence (P00044 whole entry F88S/C108A, canonical isoform) above, with R44A, N58I, S88F counted along it
# Cytochrome c isoform 1 R44A|N58I|F88S|C108A, P00044 R44A N58I F88S C108A, sequence (P00044 whole entry R44A/N58I/F88S/C108A, canonical isoform): as the sequence (P00044 whole entry F88S/C108A, canonical isoform) above, with R44A, N58I counted along it
# Cytochrome c isoform 1 C108A, P00044, sequence (P00044 whole entry C108A, canonical isoform): as the sequence (P00044 whole entry F88S/C108A, canonical isoform) above, with S88F counted along it
# Cytochrome c isoform 1 N58I|C108A, P00044 N58I C108A, sequence (P00044 whole entry N58I/C108A, canonical isoform): as the sequence (P00044 whole entry F88S/C108A, canonical isoform) above, with N58I, S88F counted along it
Substance,denaturant m value [kcal/mol/M],denaturant midpoint (higher = more stable) [M],unfolding free energy [kcal/mol]
"Cytochrome c isoform 1 N58I|C108A, P00044 N58I C108A",4.2,2.1,9
"Cytochrome c isoform 1 F88S|C108A, P00044 F88S C108A",3.8,0.9,3.5
"Cytochrome c isoform 1 C108A, P00044",3.9,1.3,5
"Cytochrome c isoform 1 R44A|C108A, P00044 R44A C108A",3,1.4,3.8
"Cytochrome c isoform 1 N58I|F88S|C108A, P00044 N58I F88S C108A",3.2,1.7,5.5
"Cytochrome c isoform 1 R44A|N58I|F88S|C108A, P00044 R44A N58I F88S C108A",3.6,1.7,6.2
"Cytochrome c isoform 1 R44A|N58I|C108A, P00044 R44A N58I C108A",3.8,2.1,8.2
